Results from publication PMC3936728.

T1: MepR (crystallization) (Staphylococcus aureus, UniProt Q5Y812 1-139)
T1 sequence: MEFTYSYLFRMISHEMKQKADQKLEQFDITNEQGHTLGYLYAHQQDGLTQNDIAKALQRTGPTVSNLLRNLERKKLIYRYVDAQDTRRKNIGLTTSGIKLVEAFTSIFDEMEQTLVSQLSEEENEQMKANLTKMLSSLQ

T2: MepR WT (Staphylococcus aureus, UniProt Q5Y812 1-139)
T2 sequence: T1 sequence

B1: 24 bp palindromic mepR operator (dsDNA)
DNA 1: ATTTAGTTAGATATCTAACTAAAT
DNA 2: ATTTAGTTAGATATCTAACTAAAT
B2: 27 bp mepR, scrambled recognition helix region (dsDNA)
DNA 1: TATTTACTATGTGTATCTAGGAAATGG
DNA 2: CCATTTCCTAGATACACATAGTAAATA
B3: 14 bp mepR site (dsDNA)
DNA 1: GTTAGACATCTAAC
DNA 2: GTTAGATGTCTAAC

Experiments:
MepR (crystallization) = target: T1, MepR (crystallization); assay: crystal structure
MepR WT = target: T2, MepR WT; assay: ITC

| Binder | binding result (MepR (crystallization)) | binding result (MepR WT) |
| --- | --- | --- |
| B1 | binds | – |
| B2 | – | no binding |
| B3 | – | no binding |
